This experiment deals with hyperactive SB transposase mutant HSB5. Put plainly: cell-based or functional assay.

For E2C/SB-5 fusion protein, the integration frequency against cells containing the E2C/SB-5 fusion protein without the limiting amount of HSB5 (142 colonies) was determined as 4 fold and the integration frequency against cells expressing the same limiting amount of HSB5 transposase alone (58 colonies) was determined as 10 fold.

These data come from patent US20060252140A1.
